This assay addresses murine SCI/MIP1-α Variant 3 (murine) (UniProt P10855). Nature of the assay: chromatographic techniques, molecular weight estimate.

As for “murine SCI/MIP1-α Variant 3 (from UniProt P10855) (ligand)”, the estimated molecular weight (self-association) was 8 kD.
